Results on 2 molecules are retold here after JP2007175055A (dated 2007).

For experiment [1], the target named is T1, recombinant soluble human CD4 (AA1-AA375, V1-V4) (human, UniProt P01730 26-400).
T1 construct: range 1-375; also called rsCD4
Nature of the experiment: affinity column of human rsCD4 on Affi-Gel 10.

The target of experiment [2] is T2, human CD4 on the cell surface (human, UniProt P01730 26-458).
T2 construct: whole, on cells; also called cell surface CD4; CD4+ cells
Kind of experiment: FACS: H9 cells pre-incubated with 10 ug r-gp120; competitors Leu3A and OKT4A. (In general: In flow cytometry, cells or beads pass a laser one at a time.)

Experiment [3] deals with T3, rhesus monkey CD4 on circulating and lymph node CD4+ cells (rhesus monkey, UniProt P16003 26-458).
T3 construct: whole, on cells; also called アカゲザルCD4+細胞
Nature of the experiment: FACS of rhesus monkey blood cells, indirect staining.

The target in experiment [4] is T4, human CD4 V1 polypeptide (AA1-AA113 and/or AA1-AA111) (human, UniProt P01730 26-138).
T4 construct: range 1-113; also called CD4 VI
Kind of experiment: RIA: CD4-V1 competing with 125I-rsCD4 for immobilised antibody.

In experiment [5] the target is human CD4 V1V2 polypeptide (AA1-AA180) (human, UniProt P01730 26-205). Kind of experiment: RIA: CD4-V1V2 (5 ug/ml) competing with 125I-rsCD4 for immobilised antibody.

T3 sequence (P16003 26-458): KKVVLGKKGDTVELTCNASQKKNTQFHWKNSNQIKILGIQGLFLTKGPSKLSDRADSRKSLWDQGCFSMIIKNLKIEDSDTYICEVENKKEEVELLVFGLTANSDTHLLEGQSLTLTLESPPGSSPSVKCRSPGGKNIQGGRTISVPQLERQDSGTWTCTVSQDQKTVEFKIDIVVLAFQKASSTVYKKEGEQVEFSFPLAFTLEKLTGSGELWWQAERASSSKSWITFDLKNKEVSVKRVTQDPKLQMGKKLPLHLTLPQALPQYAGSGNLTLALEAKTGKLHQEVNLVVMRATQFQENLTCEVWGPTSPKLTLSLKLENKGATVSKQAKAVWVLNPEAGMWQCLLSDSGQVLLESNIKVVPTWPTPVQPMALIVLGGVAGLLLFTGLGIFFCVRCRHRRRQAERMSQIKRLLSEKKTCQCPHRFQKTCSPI

B1: soluble recombinant HIV gp120 (baculovirus) (ligand)
chain: not shown
notes: also called r-gp120; HIV r-gp120
Turning to B1, the binding result in experiment [1] and in experiment [2] was “binds” in each case.

B2: mouse monoclonal antibody 5A8 (antibody, V domains shown)
VH: EVKLQESGPELVKPGASVKMSCKASGYTFTSYVIHWVRQKPGQGLDWIGYINPYNDGTDYDEKFKGKATLTSDKSSSTAYMELSSLTSEDSAVYYCAREKDNYATGAWFAYWGQGTTVTVSS
VL: DIVMTQSPSSLAVSVGEKVTMICKSSQSLLYSTNQKNYLAWYQQKPGQSPKLLIYWASTRESGVPDRFTGSGSGTDFTLTISSVKAEDLAVYYCQQYYSYRTFGGGTKLEIK
notes: also called 5A8-2F6; hybridoma ATCC HB 10881 (IVI-10257)
For B2, the binding result in experiment [3] is reported as “binds”; in experiment [4], “no binding (tested: 5μg/ml)”; in experiment [5], “binds”.
